Assay results published in patent US8673850B2, “PCSK9 inhibitors and methods of use thereof” (Institut de Recherches Cliniques de Montreal, priority 2008, dated 2014).
Positions count from the first letter of the chain named. Names may count otherwise.

B1: Δ25-36: AnxA2 deletion of aa 25-36 (protein)
chain: MSTVHEILCKLSLEGDHSTPPSAYRDALNIETAIKTKGVDEVTIVNILTNRSNAQRQDIAFAYQRRTKKELASALKSALSGHLETVILGLLKTPAQYDASELKASMKGLGTDEDSLIEIICSRTNQELQEINRVYKEMYKTDLEKDIISDTSGDFRKLMVALAKGRRAEDGSVIDYELIDQDARDLYDAGVKRKGTDVPKWISIMTERSVPHLQKVFDRYKSYSPYDMLESIRKEVKGDLENAFLNLVQCIQNKPLYFADRLYDSMKGKGTRDKVLIRIMVSRSEVDMLKIRSEFKRKYGKSLYYYIQQDTKGDYQKALLYLCGGDDYPYDVPDYA
B2: K28S+D34N+E36S: AnxA2 with Lys28, Asp34, Glu36 replaced by AnxA1 Ser, Asn, Ser (protein)
chain: MSTVHEILCKLSLEGDHSTPPSAYGSVSAYTNFNASRDALNIETAIKTKGVDEVTIVNILTNRSNAQRQDIAFAYQRRTKKELASALKSALSGHLETVILGLLKTPAQYDASELKASMKGLGTDEDSLIEIICSRTNQELQEINRVYKEMYKTDLEKDIISDTSGDFRKLMVALAKGRRAEDGSVIDYELIDQDARDLYDAGVKRKGTDVPKWISIMTERSVPHLQKVFDRYKSYSPYDMLESIRKEVKGDLENAFLNLVQCIQNKPLYFADRLYDSMKGKGTRDKVLIRIMVSRSEVDMLKIRSEFKRKYGKSLYYYIQQDTKGDYQKALLYLCGGDD
B3: R37S+E43H+K47M: AnxA2 with Arg37, Glu43, Lys47 replaced by AnxA1 Ser, His, Met (protein)
chain: B2 chain with S28K, N34D, S36E, R37S, E43H, K47M
B4: 80KKELA>GKPLD: AnxA2 with 80KKELA84 replaced by AnxA1 loop sequence 89GKPLD93 (protein, UniProt P07355 2-339, looked up, variant K80G E82P A84D)
Annexin A2: STVHEILCKLSLEGDHSTPPSAYGSVKAYTNFDAERDALNIETAIKTKGVDEVTIVNILTNRSNAQRQDIAFAYQRRTGKPLDSALKSALSGHLETVILGLLKTPAQYDASELKASMKGLGTDEDSLIEIICSRTNQELQEINRVYKEMYKTDLEKDIISDTSGDFRKLMVALAKGRRAEDGSVIDYELIDQDARDLYDAGVKRKGTDVPKWISIMTERSVPHLQKVFDRYKSYSPYDMLESIRKEVKGDLENAFLNLVQCIQNKPLYFADRLYDSMKGKGTRDKVLIRIMVSRSEVDMLKIRSEFKRKYGKSLYYYIQQDTKGDYQKALLYLCGGDD
B5: Δ102-108: AnxA2 deletion of aa 102-108 (protein)
chain: MSTVHEILCKLSLEGDHSTPPSAYGSVKAYTNFDAERDALNIETAIKTKGVDEVTIVNILTNRSNAQRQDIAFAYQRRTKKELASALKSALSGHLETVILGYDASELKASMKGLGTDEDSLIEIICSRTNQELQEINRVYKEMYKTDLEKDIISDTSGDFRKLMVALAKGRRAEDGSVIDYELIDQDARDLYDAGVKRKGTDVPKWISIMTERSVPHLQKVFDRYKSYSPYDMLESIRKEVKGDLENAFLNLVQCIQNKPLYFADRLYDSMKGKGTRDKVLIRIMVSRSEVDMLKIRSEFKRKYGKSLYYYIQQDTKGDYQKALLYLCGGDDYPYDVPDYA
B6: SW49-75: AnxA2 segment aa 49-75 swapped with AnxA1 aa 58-84 (protein)
chain: MSTVHEILCKLSLEGDHSTPPSAYGSVKAYTNFDAERDALNIETAIKTKGVDEATIIDILTKRNNAQRQQIKAAYQRRTKKELASALKSALSGHLETVILGLLKTPAQYDASELKASMKGLGTDEDSLIEIICSRTNQELQEINRVYKEMYKTDLEKDIISDTSGDFRKLMVALAKGRRAEDGSVIDYELIDQDARDLYDAGVKRKGTDVPKWISIMTERSVPHLQKVFDRYKSYSPYDMLESIRKEVKGDLENAFLNLVQCIQNKPLYFADRLYDSMKGKGTRDKVLIRIMVSRSEVDMLKIRSEFKRKYGKSLYYYIQQDTKGDYQKALLYLCGGDDYPYDVPDYA
B7: AnxA1-(His)6: purified His-tagged Annexin A1 purchased from EMD biosciences (protein)
chain: MAMVSEFLKQAWFIENEEQEYVQTVKSSKGGPGSAVSPYPTFNPSSDVAALHKAIMVKGVDEATIIDILTKRNNAQRQQIKAAYLQETGKPLDETLKKALTGHLEEVVLALLKTPAQFDADELRAAMKGLGTDEDTLIEILASRTNKEIRDINRVYREELKRDLAKDITSDTSGDFRNALLSLAKGDRSEDFGVNEDLADSDARALYEAGERRKGTDVNVFNTILTTRSYPQLRRVFQKYTKYSKHDMNKVLDLELKGDIEKCLTAIVKCATSKPAFFAEKLHQAMKGVGTRHKALIRIMVSRSEIDMNDIKAFYQKMYGISLCQAILDETKGDYEKILVALCGGNHHHHHH
B8: ^77AATAK^81: AnxA2 point mutant 77RRTKK81 to AATAK (protein)
chain: MSTVHEILCKLSLEGDHSTPPSAYGSVKAYTNFDAERDALNIETAIKTKGVDEVTIVNILTNRSNAQRQDIAFAYQAATAKELASALKSALSGHLETVILGLLKTPAQYDASELKASMKGLGTDEDSLIEIICSRTNQELQEINRVYKEMYKTDLEKDIISDTSGDFRKLMVALAKGRRAEDGSVIDYELIDQDARDLYDAGVKRKGTDVPKWISIMTERSVPHLQKVFDRYKSYSPYDMLESIRKEVKGDLENAFLNLVQCIQNKPLYFADRLYDSMKGKGTRDKVLIRIMVSRSEVDMLKIRSEFKRKYGKSLYYYIQQDTKGDYQKALLYLCGGDDYPYDVPDYA
B9: 77AATAAELASALA88: AnxA2 point mutant 77…88 to AATAAELASALA (protein)
chain: B8 chain with K81A, K88A
notes: AnxA2 point mutant 77…88 to …
B10: 77AATAA81: AnxA2 point mutant 77RRTKK81 to AATAA (protein)
chain: B8 chain with K81A

How the values were obtained:
Type in all cases: binding
PCSK9-LDLR interaction = PCSK9-LDLR interaction (Homo sapiens, UniProt Q8NBP7); test: AlphaScreen PCSK9-LDLR interaction assay
Sequence of PCSK9-LDLR interaction (Q8NBP7 153-692): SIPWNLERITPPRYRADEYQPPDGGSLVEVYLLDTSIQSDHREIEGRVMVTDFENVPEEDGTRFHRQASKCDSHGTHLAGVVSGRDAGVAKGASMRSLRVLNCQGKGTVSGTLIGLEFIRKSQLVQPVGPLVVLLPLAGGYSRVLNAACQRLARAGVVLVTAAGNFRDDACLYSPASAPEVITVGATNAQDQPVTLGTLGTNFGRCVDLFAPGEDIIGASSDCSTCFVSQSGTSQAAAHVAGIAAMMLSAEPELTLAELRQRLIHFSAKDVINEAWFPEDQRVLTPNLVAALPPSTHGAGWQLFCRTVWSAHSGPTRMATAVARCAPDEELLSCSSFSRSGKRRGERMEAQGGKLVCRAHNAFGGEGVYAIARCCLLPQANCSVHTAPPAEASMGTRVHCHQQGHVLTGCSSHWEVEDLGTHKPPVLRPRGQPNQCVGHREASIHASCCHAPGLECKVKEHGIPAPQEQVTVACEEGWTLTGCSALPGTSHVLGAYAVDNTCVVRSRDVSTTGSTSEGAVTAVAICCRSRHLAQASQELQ
Sequence of PCSK9-LDLR interaction (Q8NBP7 31-152 partner limits assumed): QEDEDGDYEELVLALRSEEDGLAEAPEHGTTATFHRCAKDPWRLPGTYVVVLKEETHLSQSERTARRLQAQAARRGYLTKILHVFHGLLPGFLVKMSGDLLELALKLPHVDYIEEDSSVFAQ
Procedure: AlphaScreen® (Perkin Elmer) streptavidin donor beads were coated with purified biotin-conjugated PCSK9 and AlphaScreen® nickel chelate acceptor beads were coated with purified His6-conjugated LDLR ectodomain. Competition in the AlphaScreen® PCSK9-LDLR interaction assay was measured, in the presence of increasing concentrations of AnxA2-derived peptides, as a reduction of fluorescence.

PCSK9-V5 [1] = target: T1, PCSK9-V5 (Homo sapiens, UniProt Q8NBP7); test: Far Western blot with PCSK9-V5 conditioned media; set-up: made in house; host or cells: CHO-K1 cells (conditioned medium, not purified); conditions: lysates of cells overexpressing the construct
T1 sequence (Q8NBP7 153-692): as the sequence (Q8NBP7 153-692) above
T1 sequence (Q8NBP7 31-152 partner limits assumed): as the sequence (Q8NBP7 31-152 partner limits assumed) above
Procedure: Lysates (20 to 30 μg protein), media or purified AnxA2-(His)6 were heated in reducing or non-reducing Laemmli sample buffer, resolved by SDS-PAGE on 8% glycine gels and electro-transferred onto nitrocellulose membranes (GE Healthcare). Following 1 h incubation in 5% skim milk in Tris-Buffered Saline-0.1% Tween (TBST), membranes where incubated with conditioned media of CHO-K1 cells overexpressing either an empty vector (pIRES-V5), PC5A-V5, CHRD-V5, pIRES-D374Y, PCSK9-V5 or its V5-tagged mutants, or incubated with purified AnxA2-(His)6 for 3 h at room temperature. […] For competition experiments, 10 μg of His-tagged PCSK9 or CHRD were added to the PCSK9-V5 media before Far Western blotting. For PCSK9 binding requirements with the ˜33 kDa protein, 1M NaCl, 10 mg/ml heparin, 1M NaCl+10 mg/ml heparin, or 100 mM EDTA were added to the PCSK9-V5 conditioned media used for Far Western blotting.
Wild type human Annexin A2 (AnxA2) (ATCC #MGC-2257) and Annexin A1 (AnxA1) (ATCC #MGC-5095) were purchased from ATCC and subcloned into NheI/SacI digested pIRES2-EGFP vector. An HA epitope ([…]) was fused by PCR mutagenesis at the C-terminus of both AnxA1 and AnxA2. Two-steps PCRs were performed on AnxA2 cDNA to introduce point mutations (N62Q; S64A; K28S+D34N+E36S; R37S+E43H+K47M; 77RRTKK (SEQ ID NO: 26)>AATAK (SEQ ID NO: 27); ^77RRTKK (SEQ ID NO: 26)>AATAA (SEQ ID NO: 28); ^77RRTKKELASALK (SEQ ID NO: 29)>^77AATAAELASALA (SEQ ID NO: 30); 80KKELA (SEQ ID NO: 31)>GKPLD (SEQ ID NO: 32)), or amino acid (aa) deletions (Δ2-24, aa 2-24; ΔR1, aa 37-108; ΔR2, aa 109-192; ΔR3, aa 193-268; ΔR4, aa 269-339; Δ25-36, aa 25-36; Δ37-48, aa 37-48; Δ49-61, aa 49-61; Δ62-75, aa 62-75; Δ37-66, aa 37-66; Δ74-88, aa 74-88; Δ82-88, aa 82-88; Δ89-101, aa 89-101; Δ102-108, aa 102-108) into pIRES2-AnxA2-EGFP vector (see Table 3 above). In addition, using PCR, the AnxA2 segment aa 49-75 was swapped with the corresponding AnxA1 segment aa 58-84 [AnxA1 (aa 58-84)>AnxA2 (aa 49-75)]. Similar swaps were performed for the corresponding AnxA2 sequence with AnxA1 (AnxA1>AnxA2: aa 25-27; aa 28-30; aa 31-33; aa 34-36; aa 37-39; aa 40-42; aa 43-45; aa 46-48; aa 49-75; aa 49-61; aa 62-75). All final cDNA constructs were verified by DNA sequencing.

PCSK9-V5 [2] = target: T1, PCSK9-V5; test: Hexa-His pull-down assay; set-up: made in house; host or cells: CHO-K1 cells (conditioned medium, not purified); conditions: 20 μg protein immobilized on cobalt chelate resin
Procedure: 20 μg of purified AnxA2-(His)6 or AnxA1-(His)6 or no proteins (for negative control) were immobilized onto a cobalt chelate resin (Thermo Scientific). The resin was then washed several times with 40 mM immidazole and incubated overnight at 4° C. with 800 μl of conditioned media from PCSK9-V5-transfected CHO-K1 cells containing 40 mM immidazole. The resin was then washed several times with immidazole (40 mM), heated in reducing Laemmli sample buffer and centrifuged. Supernatants were analyzed by Western blot as described above using the anti-V5-HRP or anti-His-HRP antibodies.

Molecule	PCSK9-V5 binding by Far Western blot (PCSK9-V5 [1])	also measured
GSVKAYTNFDAERDALNIETAIKTKGVDEVTIVNILTNRSNAQRQDIAFAYQRRTKKELASALKSALSGHLET [No 896970, 73-mer AnxA2 R1 peptide extending from amino acids 25 to 97]	–	inhibition of the PCSK9-LDLR interaction (PCSK9-LDLR interaction; 10 uM (not shown)): up to 90%
peptide extending from amino acid 49 to 97: shorter AnxA2-derived peptide extending from amino acid 49 to 97 (KGVDEVTIVNILTNRSNAQRQDIAFAYQRRTKKELASALKSALSGHLET; HOMO SAPIENS)	–	inhibitory activity on the PCSK9-LDLR ectodomain interaction (PCSK9-LDLR interaction): inhibits the interaction between PCSK9 and the ectodomain of LDLR however to a lesser extent
B1	abolished PCSK9 binding	–
B2	slightly reduced the ability of PCSK9 to bind AnxA2	–
B3	significant decrease of binding	–
B4	had no appreciable effect on PCSK9 binding	–
B5	abolished PCSK9 binding	–
B6	abolished	–
B7	–	PCSK9-V5 bound in pull-down (PCSK9-V5 [2]): does not
B8	is critical for the AnxA2-PCSK9 binding	–
B9	abolished binding of AnxA2 to PCSK9	–
B10	is critical for the AnxA2-PCSK9 binding	–
